Results reported in patent publication US20220204643A1 (published 2022).
Where two headings read alike, the source gives them in different places.

Tests used:
[1] = biological target: T1, aarF domain containing kinase 5 (human, UniProt Q3MIX3 1-580); assay: protein array
T1 construct: on protein array; also called ADCK5

[2] = biological target: T2, kelch like ECH associated protein 1, transcript variant 1 (human, UniProt Q14145 1-624); assay: protein array
T2 construct: on protein array; also called KEAP1

[3] = biological target: T3, cancer/testis antigen 1A (human, UniProt P78358 1-180); assay: protein array
T3 construct: on protein array; also called CTAG1A

[4] = biological target: T4, influenza virus NS1A binding protein (human, UniProt Q9Y6Y0 1-642); assay: protein array
T4 construct: on protein array; also called IVNS1ABP
T4 sequence: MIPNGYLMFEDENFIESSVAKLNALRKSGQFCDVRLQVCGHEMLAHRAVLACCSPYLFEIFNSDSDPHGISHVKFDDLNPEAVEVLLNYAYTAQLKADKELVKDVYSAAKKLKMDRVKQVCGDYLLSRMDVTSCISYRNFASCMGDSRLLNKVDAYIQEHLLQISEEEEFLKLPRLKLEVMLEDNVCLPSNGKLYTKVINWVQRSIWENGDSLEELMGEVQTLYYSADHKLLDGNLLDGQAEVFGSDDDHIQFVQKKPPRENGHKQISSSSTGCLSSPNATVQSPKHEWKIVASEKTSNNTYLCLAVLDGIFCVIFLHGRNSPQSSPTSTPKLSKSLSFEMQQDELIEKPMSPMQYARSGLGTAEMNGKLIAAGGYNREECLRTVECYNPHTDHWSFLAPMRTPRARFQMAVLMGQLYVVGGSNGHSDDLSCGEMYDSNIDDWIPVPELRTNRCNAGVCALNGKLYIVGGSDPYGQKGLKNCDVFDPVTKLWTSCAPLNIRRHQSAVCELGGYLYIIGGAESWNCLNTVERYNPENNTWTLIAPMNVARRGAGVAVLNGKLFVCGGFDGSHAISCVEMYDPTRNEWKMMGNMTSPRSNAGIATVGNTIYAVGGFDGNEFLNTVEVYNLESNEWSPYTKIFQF

[5] = biological target: T5, DIX domain containing 1, transcript variant 2 (human, UniProt Q155Q3 220-683); assay: protein array
T5 construct: on protein array; also called DIXDC1
T5 sequence: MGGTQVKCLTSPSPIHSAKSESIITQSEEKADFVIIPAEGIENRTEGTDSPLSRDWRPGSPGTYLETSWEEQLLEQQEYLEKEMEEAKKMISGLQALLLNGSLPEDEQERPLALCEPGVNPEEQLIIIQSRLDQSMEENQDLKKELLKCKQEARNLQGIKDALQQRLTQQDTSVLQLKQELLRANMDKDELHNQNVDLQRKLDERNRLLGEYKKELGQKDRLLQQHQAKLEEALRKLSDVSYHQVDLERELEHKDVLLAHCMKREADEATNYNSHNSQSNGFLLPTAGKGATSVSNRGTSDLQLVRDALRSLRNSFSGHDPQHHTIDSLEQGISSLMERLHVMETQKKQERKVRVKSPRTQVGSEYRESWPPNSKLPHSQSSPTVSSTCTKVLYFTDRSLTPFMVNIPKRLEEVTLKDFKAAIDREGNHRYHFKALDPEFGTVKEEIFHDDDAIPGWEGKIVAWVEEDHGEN

[6] = biological target: T6, ubiquilin 1, transcript variant 2 (human, UniProt Q9UMX0 2-589)
T6 construct: HuProt array protein, full-length recombinant from yeast; also called UBQLN1
T6 sequence (Q9UMX0 other isoform, or with tags, fused parts or gaps mutant limits assumed): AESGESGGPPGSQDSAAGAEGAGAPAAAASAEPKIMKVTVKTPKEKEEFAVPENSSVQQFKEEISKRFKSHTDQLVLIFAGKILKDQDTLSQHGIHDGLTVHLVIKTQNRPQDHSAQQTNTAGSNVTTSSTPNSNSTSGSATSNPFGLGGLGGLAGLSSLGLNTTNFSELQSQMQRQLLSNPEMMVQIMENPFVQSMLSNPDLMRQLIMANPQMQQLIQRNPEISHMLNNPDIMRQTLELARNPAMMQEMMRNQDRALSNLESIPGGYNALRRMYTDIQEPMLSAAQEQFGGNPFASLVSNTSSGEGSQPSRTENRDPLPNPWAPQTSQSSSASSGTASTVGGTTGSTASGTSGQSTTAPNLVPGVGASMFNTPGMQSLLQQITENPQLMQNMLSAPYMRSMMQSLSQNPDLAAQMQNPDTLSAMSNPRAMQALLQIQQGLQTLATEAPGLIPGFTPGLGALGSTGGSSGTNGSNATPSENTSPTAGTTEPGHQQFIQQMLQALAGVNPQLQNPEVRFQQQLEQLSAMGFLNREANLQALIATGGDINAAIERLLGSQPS

[7] = biological target: T7, ubiquilin 1, transcript variant 2 (human, UniProt Q9UMX0 2-589); assay: protein array
T7 construct: on protein array; also called UBQLN1
T7 sequence (Q9UMX0 other isoform, or with tags, fused parts or gaps mutant limits assumed): as above

[8] = biological target: T8, Jupiter microtubule associated homolog 2 (human, UniProt Q9H910 1-190)
T8 construct: also called HN1L
T8 sequence: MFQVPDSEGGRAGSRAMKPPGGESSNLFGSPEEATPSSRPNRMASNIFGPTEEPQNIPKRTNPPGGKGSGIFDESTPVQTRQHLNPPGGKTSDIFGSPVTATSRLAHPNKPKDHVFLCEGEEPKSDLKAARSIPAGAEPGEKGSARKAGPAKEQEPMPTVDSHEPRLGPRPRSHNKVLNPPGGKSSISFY

[9] = biological target: T9, quinoid dihydropteridine reductase, transcript variant 1 (human, UniProt P09417 2-244); assay: protein array
T9 construct: on protein array; also called QDPR
T9 sequence: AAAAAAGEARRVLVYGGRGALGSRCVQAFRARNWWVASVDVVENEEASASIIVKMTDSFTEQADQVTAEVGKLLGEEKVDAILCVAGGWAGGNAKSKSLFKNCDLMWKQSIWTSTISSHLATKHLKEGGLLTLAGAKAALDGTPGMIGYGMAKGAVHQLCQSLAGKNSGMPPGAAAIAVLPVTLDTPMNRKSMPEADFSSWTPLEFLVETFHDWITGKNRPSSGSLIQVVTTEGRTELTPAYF

[10] = biological target: T10, quinoid dihydropteridine reductase, transcript variant 1 (human, UniProt P09417 2-244)
T10 construct: HuProt array protein, full-length recombinant from yeast; also called QDPR
T10 sequence: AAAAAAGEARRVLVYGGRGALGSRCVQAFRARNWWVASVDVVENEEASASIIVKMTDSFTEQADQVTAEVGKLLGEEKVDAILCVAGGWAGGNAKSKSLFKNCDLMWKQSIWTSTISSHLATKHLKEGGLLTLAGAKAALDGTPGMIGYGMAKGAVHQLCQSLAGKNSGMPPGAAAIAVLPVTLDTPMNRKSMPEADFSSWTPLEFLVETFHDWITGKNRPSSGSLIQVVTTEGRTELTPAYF

T3 sequence (P78358 whole entry): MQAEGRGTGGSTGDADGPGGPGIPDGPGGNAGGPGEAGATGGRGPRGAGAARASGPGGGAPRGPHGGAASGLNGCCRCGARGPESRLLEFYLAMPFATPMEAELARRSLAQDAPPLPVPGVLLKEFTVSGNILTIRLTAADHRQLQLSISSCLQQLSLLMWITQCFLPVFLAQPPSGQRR
T2 sequence (Q14145 whole entry, change not shown): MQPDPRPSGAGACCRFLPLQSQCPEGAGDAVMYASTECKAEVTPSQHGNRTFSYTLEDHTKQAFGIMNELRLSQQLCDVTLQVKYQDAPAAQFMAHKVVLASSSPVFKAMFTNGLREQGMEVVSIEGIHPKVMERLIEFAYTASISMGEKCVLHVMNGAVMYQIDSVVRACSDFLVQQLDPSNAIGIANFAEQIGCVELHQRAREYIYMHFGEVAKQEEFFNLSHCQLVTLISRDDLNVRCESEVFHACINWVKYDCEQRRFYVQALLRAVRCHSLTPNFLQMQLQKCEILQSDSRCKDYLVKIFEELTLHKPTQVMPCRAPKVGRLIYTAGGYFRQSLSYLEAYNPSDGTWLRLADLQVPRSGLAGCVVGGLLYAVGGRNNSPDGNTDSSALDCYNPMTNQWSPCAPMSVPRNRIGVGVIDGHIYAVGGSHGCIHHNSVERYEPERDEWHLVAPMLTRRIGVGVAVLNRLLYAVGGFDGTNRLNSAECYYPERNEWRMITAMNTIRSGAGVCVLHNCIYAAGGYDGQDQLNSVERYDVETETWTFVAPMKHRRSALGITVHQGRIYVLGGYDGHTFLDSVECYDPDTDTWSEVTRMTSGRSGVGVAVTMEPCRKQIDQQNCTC
T1 sequence (Q3MIX3 other isoform, or with tags, fused parts or gaps limits assumed): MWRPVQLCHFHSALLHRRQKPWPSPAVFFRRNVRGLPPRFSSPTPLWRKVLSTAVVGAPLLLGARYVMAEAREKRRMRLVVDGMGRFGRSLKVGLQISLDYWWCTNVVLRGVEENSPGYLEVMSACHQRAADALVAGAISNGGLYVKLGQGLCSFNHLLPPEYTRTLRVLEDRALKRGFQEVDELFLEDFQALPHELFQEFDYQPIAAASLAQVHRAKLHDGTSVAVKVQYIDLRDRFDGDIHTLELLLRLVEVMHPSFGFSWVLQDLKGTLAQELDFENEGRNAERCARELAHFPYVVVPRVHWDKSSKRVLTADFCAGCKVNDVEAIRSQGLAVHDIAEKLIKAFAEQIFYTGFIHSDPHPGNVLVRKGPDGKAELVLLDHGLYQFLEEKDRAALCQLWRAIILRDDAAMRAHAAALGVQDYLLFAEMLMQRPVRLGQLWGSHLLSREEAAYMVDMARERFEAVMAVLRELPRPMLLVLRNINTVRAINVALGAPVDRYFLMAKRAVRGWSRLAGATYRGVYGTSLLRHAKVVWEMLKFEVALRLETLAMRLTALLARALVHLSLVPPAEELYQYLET

B1: TTES1009 (antibody, V domains shown)
VH: EVQLVESGGGLVQPGGSLRLSCAASGFTFSSYEMNWVRQAPGKGLEWVSYISSSGSTIYYADSVKGRFTISRDNAKNSLYLQMNSLRAEDTAVYYCARRGFYYYYGMDVWGQGTTVTVSS
VL: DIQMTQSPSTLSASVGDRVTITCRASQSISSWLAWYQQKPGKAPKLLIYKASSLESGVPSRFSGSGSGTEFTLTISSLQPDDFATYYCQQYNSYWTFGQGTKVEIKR
notes: VH/VL tied via antigen in summary, not by name in this stretch
- binding result [1]: binds

B2: TCOL1007 (antibody, V domains shown)
VH: PVQLVESGGGVVQPGRSLRLSCAASGFTFSNYGMHWVRQAPGKGLEWVAVISDDGNDKDNADSVKGRFTISRDNSKNTLYLRMNSLRREDTAVYYCARDGFDYWGQGTLVTVSS
VL: DIVMTQTPLSMPVTPGEPASISCRSSQSLLDSDDGKTYLDWYLQKPGQSPQLLIYTVSYRASGVPDRFSGSGSGTDFTLKISRVEAEDVGVYYCMQRIEFPFTFGPGTKVDIKR
notes: VH/VL only
- binding result [2]: binds

B3: TTHY1004 (antibody, V domains shown)
VH: PVQLQESGPGLVKPSQTLSLTCTVSGGSISSGTYYWSWIRQPAGKGLEWIGRIYASGSTNYNPSLKSRVTISVDTSKNQFSLKLTSVTAADTAVYYCARYSGSYPLGFDYWGQGTLVTVSS
VL: DIQMTQSPSSLSASVGDRVTITCRASQSISTYLNWYQQKPGMAPKLLIYAASTLQSGVPSRFSGSGSATDYTLTISSLQPEDFATYYCQQSYNTPLTFGGGTKVDIKR
notes: as for B1
- binding result [3]: binds

B4: TCER1004 (antibody, V domains shown)
VH: VVQLVESGGGLVQPGGSLRLSCAASGFTFSSYSMNWVRQAPGKGLEWLSYVSSSGSTMYYADSVKGRFTISRDTAKNSLFLQMNSLRAEDTAVYYCAKGGPLRPFDIWGQGTLVTVSS
VL: VIQMTQSPTSLSASVGDRVTITCRASQSISSYLNWYQQKLGKAPKLLIYAASSLQSGVPSRFSGSGSGTDFTLTISSLQPEDFATYYCQQSYSTSLTFGGGTKVEIKR
notes: VH/VL only
- binding result [4]: binds

B5: THNS1008 (antibody, V domains shown)
VH: QVQLQESGPGLVKPSQTLSLTCAVSGGSISSGGYPWSWIRQPPGKGLEWIGYISYSGSTDYNPSLKSRVTISLDTSSNQFSLNLSSLTAADTAVYYCARGAAFYYGMDVWGQGTTVTVSS
VL: DIQMTQSPSSLSASVGDRVTITCRASQSISTYLNWYQQKPGKAPKLLIYVASSLQSGVPSRFSGSGSGTDFTLTISGLQPEDFATYYCQQSYSTPYTFGQGTKLEIKR
notes: VH/VL only
- binding result [2]: binds

B6: TTES1001 (antibody, V domains shown)
VH: PVQLVQSGAEVKKPGSSVQVSCKGSGGTFSEYGISWLRQAPGQGLEWIGGIIPVLGIPNYAQKFRGRVTITADESTGSAYMEVSSLRSEDTAVYYCAREGLRLARGWFHPWGQGTLVTVTS
VL: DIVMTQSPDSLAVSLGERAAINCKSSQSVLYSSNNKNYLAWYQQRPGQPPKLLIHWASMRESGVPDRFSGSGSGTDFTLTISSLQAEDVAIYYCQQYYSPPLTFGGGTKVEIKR
notes: as for B1
- binding result [5]: binds

B7: TBRE1030 (antibody, V domains shown)
VH: QVQLQESGPGLVKPSQTLSLTCTVSGGSISSGGYYWSWIRQHPGKGLEWIGYIYYSGSTYYNPSLKSRVTISVDTSKNQFSLKLSSVTAADTAVYYCARDLSCSSTSCHDAFDIWGQGTMVTVSS
VL: not shown
notes: detected with anti-human IgG Fc
- binding result [6]: binds

B8: TBRE1030 (antibody, V domains shown)
VH: QVQLQESGPGLVKPSQTLSLTCTVSGGSISSGGYYWSWIRQHPGKGLEWIGYIYYSGSTYYNPSLKSRVTISVDTSKNQFSLKLSSVTAADTAVYYCARDLSCSSTSCHDAFDIWGQGTMVTVSS
VL: not shown
notes: VH/VL only
- binding result [7]: binds

B9: TOVA1008 (antibody, V domains shown)
VH: ELQLVESGGGLVQPGGSLRLSCAASGFTFSSYWMSWVRQAPGKGLEWVANINQDGGEKYYVDSVKGRFTISRDNAKNSLYLQMNSLRAEDTAVYYCAHYYYDSSGYYQNAEYFQYWGQGTLVTVSS
VL: DIQMTQSPPSLSASVGDRVTITCQASQDISNYLNWYQQKPGKTPKLLIYAASTLETGVPSRFSGSGSGTDFTFTINSLQPEDIATYYCQQYDSLPLTFGGGTKVEIKR
- binding result [8]: binds

B10: TBLA1012 (antibody, V domains shown)
VH: LLQLVESGGGVVQPGRSLRLSCAASGFTFTRHGFHWVRQAPGKGLEWVAVISSDGRKIHYTDSVKGRFVISRDDSDNTVYLHMNSLRLGDTALYYCARDSGGTPGPYWGQGTLVTVSS
VL: DVVMTQSPLSLPVTLGQPASISCRSSQSLVHSDGNTYLNWFQQRPGQSPRRLIYMVSNRDSGVPDRFSGSGSGTDFTLKISRVEAEDVGVYYCLQGTHWPPTIGQGTKVEIE
notes: VH/VL only
- binding result [3]: binds

B11: TLUS1001 (antibody, V domains shown)
VH: QVQLQESGPGLVKPSETLSLTCTVSGDSISSNYWSWIRQPPGKGLEWIGYIYYSGSTNYNPSLKSRVTISVDTSKNQFSVKLSSVTAADTAVYYCARYGDYSFDPWGQGTLVTVSS
VL: not shown
notes: as for B1
- binding result [9]: binds

B12: TLUS1001 (antibody, V domains shown)
VH: QVQLQESGPGLVKPSETLSLTCTVSGDSISSNYWSWIRQPPGKGLEWIGYIYYSGSTNYNPSLKSRVTISVDTSKNQFSVKLSSVTAADTAVYYCARYGDYSFDPWGQGTLVTVSS
VL: not shown
notes: as for B7
- binding result [10]: binds

B13: TKIC1002 (antibody, V domains shown)
VH: PVQLQESGPGLVKPSETLSLTCTVSGGSISSYYWSWIRQPPGKGLEWIGYLFYSGSTNYNPSLKSRVTISVDTSKNQFSLKLGSVTAADTAVYYCARHRIFGLDVWGQGTTVTVSS
VL: EIVLTQSPGTLSLSLGERATLSCRASQSVSGSHLAWYQQKPGQAPRLLIYDASSRATGIPDRFSGSGSGTEFTLTISRLEPEDFAVYYCQQYGSSPLWFGQGTKVEIK
notes: VH/VL only
- binding result [1]: binds

B14: TMEL1034 (antibody, V domains shown)
VH: QLQLQESGPGLVKPWETLSLSCTVSGGSISSSFFYWGWIRQPPGKGLQWIGNIHYTGSTYYNPSLKSRITMSVDTSKNQFSLKLSSVTAADTAVYYCARHRVGDSPGLHYWGQGTLVTVSS
VL: SYELTQPPSVSVSPGQTARITCSGDALPKKYAFWYQQKSGQAPVLVIYEDSKRPSGIPERFSGSSSGTMATLTISGAQVEDESDYYCYSTDSSGNVWVFGGGTKLTVLG
notes: as for B1
- binding result [9]: binds

B15: TMEL1034 (antibody, V domains shown)
VH: QLQLQESGPGLVKPWETLSLSCTVSGGSISSSFFYWGWIRQPPGKGLQWIGNIHYTGSTYYNPSLKSRITMSVDTSKNQFSLKLSSVTAADTAVYYCARHRVGDSPGLHYWGQGTLVTVSS
VL: SYELTQPPSVSVSPGQTARITCSGDALPKKYAFWYQQKSGQAPVLVIYEDSKRPSGIPERFSGSSSGTMATLTISGAQVEDESDYYCYSTDSSGNVWVFGGGTKLTVLG
notes: as for B7
- binding result [10]: binds

B16: TTES1011 (antibody, V domains shown)
VH: PVTLRESGPALVKPTQTLTLTCTFSGFSLSTSGMCVSWIRQPPGKALEWLARIDWDDDKYYSTSLKTRLTISKDTSKNQVVLTMTNMDPVDTATYYCARMQIVATTQTYYYYYGMDVWGQGTTVTVSS
VL: PAVLTQPPSVSGAPGQRVTISCTGSSSNIGAGYDVHWYQQLPGTAPKLLIYGNSNRPSGVPDRFSGSKSGTSASLAITGLQAEDEADYYCQSYDSSLSGSGVFGGGTKLTVLG
- binding result [8]: binds

B17: TTES1010 (antibody, V domains shown)
VH: EVQLVESGGGLVQPGGSLRLSCAASGFTFSSYSMNWVRQAPGKGLEWVSYISSSSSTIYYADSVKGRFTISRDNAKNSLYLQMNSLRAEDTAVYYCASLLGGDPDYWGQGTLVTVSS
VL: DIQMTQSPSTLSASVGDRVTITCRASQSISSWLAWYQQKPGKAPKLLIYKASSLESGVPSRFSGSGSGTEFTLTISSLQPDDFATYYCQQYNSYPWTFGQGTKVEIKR
notes: as for B1
- binding result [5]: binds
